Source: paper PMC9688426, “Comparison of Optical and Electrical Sensor Characteristics for Efficient Analysis of Attachment and Detachment of Aptamer”

Target: thrombin (bovine, UniProt P00735;P00735 318-366;367-625)
Assay: graphene oxide FET resistance change; TBA adsorbed on graphene oxide; thrombin detected down to 250 pM within 5 min (detection limit, not Kd); Assay buffer and temperature not given in the material (reagents list PBS pH 7.4 and Trizma base); sections 3.2.1-3.2.3 have no text. GOx, trypsin, lysozyme, ficin and goat anti-mouse IgG were purchased, but no result for them is in the material
Conditions: protein: commercial; copies: 1;1

Q: Does GGTTGGTGTGGTTGG (ssDNA) [TBA] bind?
A: binds
